Numbering of substitutions follows the chain as printed. In names and notes the source's numbering stands. Where no end group is shown, it is not given here.

In assay [1] the target is T1, recombinant human Tau monomer, 2N4R isoform (amino acids 2-441) (human, UniProt P10636-8 2-441).
T1 construct: range 2-441; N-terminal His-tag removed with TEV protease; also called monomeric Tau
As to the kind of experiment: SPR, hIgG captured, Tau monomer analyte; stressed sample. (In SPR one partner is held on a chip, and binding of the other changes the refractive index at the surface.)

Assay [2] concerns the target T1, recombinant human Tau monomer, 2N4R …. As to the kind of experiment: SPR, hIgG captured, Tau monomer analyte; control sample.
The target is the same in assay [3]. Briefly: SPR, hIgG captured, Tau monomer analyte, 1:1 fit. On the procedure:
Affinity of selected antibodies was assessed at 25° C. using a Biacore T200 instrument, the GE Biacore human IgG capture kit and a CM5 Series S chip. The hIgG were diluted to 0.25 μg/ml in 10 mM HEPES pH7.4, 150 mM NaCl, 0.05% Tween 20 (running buffer, HBSP) and captured at a flow rate of 10 μl/min for 150 seconds. Kinetic data was collected for Human Tau monomer injected at concentrations of 0, 0.4, 1.2, 3.7, 11, 11, 33 and 100 nM in HBSP, using a flow rate of 30 μl/min, a 300 second association phase and a 600 second dissociation phase. Between cycles the surface was regenerated using two sequential 30 second injections of 3M MgCl at 10 μl/min. Data was fit to a 1:1 binding model (Table 15).

The target is the same in assay [4]. As to the kind of experiment: SPR, hIgG captured, Tau monomer analyte; unstressed sample. On the procedure: To assess the impact of N²⁸ deamidation on the affinity for human Tau, it was desirable to obtain two samples with widely separated N²⁸ deamidation status. Hu37D3-H9.v5 hIgG4.S228P was incubated at 40° C. for two weeks at a concentration of 1 mg/ml in Phosphate Buffered Saline, pH 7.4. Deamidation of the N²⁸G2⁹ motif was measured using LC-MS/MS. […] The stressed and unstressed antibodies were analyzed for Tau binding by surface plasmon resonance (Biacore) using the GE Biacore human IgG capture kit and a Series S CM5 chip. The hIgG were diluted to 2 μg/ml in 10 mM HEPES pH7.4, 150 mM NaCl, 0.05% Tween 20 (running buffer, HBSP) and captured at a flow rate of 10 μl/min for 15 seconds (t0 sample) or 17 seconds (t2 sample). […] Between cycles the surface was regenerated using a 30 second injection of 3M Magnesium Chloride at 10 μl/min. A 1:1 binding model was fitted to the data using instrument defaults, including local fitting of the “RI” parameter.

Assay [5] has the same target. As to the kind of experiment: SPR single-cycle, Tau monomer amine-coupled, Fab analyte; Fab, not IgG; Tau monomer on the chip. On the procedure:
(§1) Human monomer Tau protein was covalently coupled to a Biacore Series S CM5 chip using the Biacore Amine Coupling Kit (GE Life Sciences), resulting in immobilization to a level of approximately 128 RU. Direct binding of 37D3-H9 in both Fab and IgG formats was monitored using the single-cycle kinetics experimental format with five association periods of 300s each and antibody concentrations of 1, 2, 4, 8 and 16 nM (IgG) or 5, 10, 20, 40 and 80 nM (Fab). Dissociation was monitored for 7200 seconds (Fab) or for 14400 seconds (IgG). A value for the dissociation rate was calculated by fitting a 1:1 binding model to the data.

The target in another assay is T2, Tau fragment 2-21 Y18A (human, UniProt P10636-8 2-21).
T2 construct: range 2-21
T2 peptide (looked up): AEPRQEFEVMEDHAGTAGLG
Briefly: alanine scanning of Tau fragment 2-21.

The target of the next assay is T3, Tau fragment 2-21 L20A (human, UniProt P10636-8 2-21).
T3 construct: range 2-21
T3 peptide (looked up): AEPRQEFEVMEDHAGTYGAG
Briefly: alanine scanning of Tau fragment 2-21.

The target of assay [6] is T4, full-length human Tau (flTau) (human, UniProt P10636-8 1-441).
T4 construct: range 1-441; bought (SignalChem); also called human Tau-441
T4 sequence (P10636 other isoform, or with tags, fused parts or gaps limits assumed): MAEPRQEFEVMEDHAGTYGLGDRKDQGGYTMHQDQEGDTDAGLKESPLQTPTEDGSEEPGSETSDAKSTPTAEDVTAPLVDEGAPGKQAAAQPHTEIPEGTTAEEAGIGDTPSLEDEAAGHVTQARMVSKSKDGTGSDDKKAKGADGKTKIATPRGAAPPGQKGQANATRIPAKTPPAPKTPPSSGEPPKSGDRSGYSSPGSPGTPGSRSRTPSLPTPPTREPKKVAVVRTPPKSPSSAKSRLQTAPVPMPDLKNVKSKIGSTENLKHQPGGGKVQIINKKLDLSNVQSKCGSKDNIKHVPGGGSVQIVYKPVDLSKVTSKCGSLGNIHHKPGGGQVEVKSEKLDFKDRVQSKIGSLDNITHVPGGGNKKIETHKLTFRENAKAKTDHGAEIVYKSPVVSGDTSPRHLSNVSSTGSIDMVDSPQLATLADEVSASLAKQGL
Briefly: SPR, hybridoma Ab on anti-IgG chip, flTau analyte. The procedure, abridged: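 Unpurified antibodies from serum-free hybridoma supernatants were captured on an anti-IgG SPR chip (Biacore T-100), and flTau was flowed as analyte. KD was obtained from kinetic analysis with a 1:1 Langmuir fit.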

The target of assay [7] is T1, recombinant human Tau monomer, 2N4R …. Briefly: SPR, mIgG2a captured, Tau monomer analyte, 1:1 fit. The essentials: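 Antibodies in mIgG2a format captured on anti-mouse IgG surface at 1 μg/ml (30 or 45 s) or 0.1 μg/ml (70 or 150 s), 10 μl/min, in HBSP (10 mM HEPES pH7.4, 150 mM NaCl, 0.05% Tween 20). Tau monomer flowed as analyte; association 180-480 s, dissociation 300-600 s, 1:1 fit.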
Target sequence in this assay (P10636 other isoform, or with tags, fused parts or gaps limits assumed): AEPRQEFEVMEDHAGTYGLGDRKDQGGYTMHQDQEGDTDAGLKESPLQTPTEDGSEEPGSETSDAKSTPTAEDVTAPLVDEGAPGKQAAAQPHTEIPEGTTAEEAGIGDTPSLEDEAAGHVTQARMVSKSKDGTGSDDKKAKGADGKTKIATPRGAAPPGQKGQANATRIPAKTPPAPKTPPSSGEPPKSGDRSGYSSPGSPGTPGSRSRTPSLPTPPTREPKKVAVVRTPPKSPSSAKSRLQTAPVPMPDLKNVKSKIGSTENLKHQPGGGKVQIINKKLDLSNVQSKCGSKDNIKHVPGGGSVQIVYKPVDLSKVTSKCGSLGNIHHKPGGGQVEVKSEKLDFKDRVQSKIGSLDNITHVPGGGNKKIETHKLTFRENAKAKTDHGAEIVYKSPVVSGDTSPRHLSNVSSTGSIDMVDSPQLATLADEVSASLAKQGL

The next assay deals with T5, Tau fragment 9-23 (human, UniProt P10636-8 9-23).
T5 construct: range 9-23
T5 peptide (looked up): EVMEDHAGTYGLGDR
Briefly: 15mer offset peptides.

The target in the next assay is T6, Tau fragment 8-22 (human, UniProt P10636-8 8-22).
T6 construct: range 8-22
T6 peptide (looked up): FEVMEDHAGTYGLGD
Briefly: 15mer offset peptides.

The next assay deals with T7, Tau fragment 7-21 (human, UniProt P10636-8 7-21).
T7 construct: range 7-21
T7 peptide (looked up): EFEVMEDHAGTYGLG
As to the kind of experiment: 15mer offset peptides.

Another assay addresses T8, Tau fragment 11-25 (human, UniProt P10636-8 11-25, not fully specified).
T8 construct: range 11-25
T8 peptide (looked up): MEDHAGTYGLGDRKD
Briefly: 15mer offset peptides.

Assay [8] concerns the target T1, recombinant human Tau monomer, 2N4R …. Briefly: SPR single-cycle, Tau monomer amine-coupled. The procedure:
as §1

The next assay deals with T9, MAPT(2-34) (human, biotinylated).
T9 construct: also called Tau fragment 2-34
T9 peptide: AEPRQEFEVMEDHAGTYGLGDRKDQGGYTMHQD
As to the kind of experiment: ELISA, biotinylated peptide on Neutravidin plate, IgG titrated, A450 nm. The procedure:
(§2) Following a comparison of 37D3-H9 binding to biotinylated Tau monomer and biotinylated peptide (MAPT_10-24), binding of 37D3-H9 to additional biotinylated peptides was also assessed. Nunc maxisorp 96-well microplates were coated at 4° C. for >12 hours with Neutravidin diluted to 2 μg/ml in 50 mM Sodium Carbonate Buffer, pH 9.6. All subsequent incubations were performed at room temperature. After coating, plates were blocked with Superblock™ (PBS) Blocking Buffer (Thermo Fisher Scientific) for two hours then washed thoroughly with PBS, 0.05% Polysorbate 20. Wells were then exposed to biotinylated Tau peptides (Table 20) or Avi-tag biotinylated Tau monomer at 1 μg/ml for one hour and washed as previously. Peptides were synthesized using standard solid-phase Fmoc chemistry (see, e.g., Fmoc solid phase peptide synthesis: A practical approach; Chan, W. C., White, P. D., Eds.; Oxford University Press: New York, 2000). Antibodies 37D3-H9 mIgG2a and hu37D3-H9.v5 hIgG1, serially diluted from 500 nM to 50 pM in 90% Superblock™ (PBS) Blocking Buffer, were allowed to bind biotinylated-Tau coated wells for 90 minutes. Wells were washed as previously and bound antibody detected with peroxidase-conjugated secondary antibody (Invitrogen/Life Technologies) diluted 1/1000 in Superblock™ Blocking Buffer (Rabbit anti-Mouse IgG or Goat Anti-Human IgG (H+L) respectively). After twenty minutes wells were washed as previously and signal developed with TMB Microwell 2-Component Substrate (KPL). Reactions were stopped by addition of 1M Phosphoric Acid and absorbance at 450 nm was measured with a SpectraMax M2 platereader.

The target in a further assay is T10, MAPT(2-24) (human, biotinylated).
T10 construct: also called Tau fragment 2-24
T10 peptide: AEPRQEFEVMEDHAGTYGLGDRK
Described as above. The procedure: as §2

Assay [9] has as its target T1, recombinant human Tau monomer, 2N4R …. Briefly: SPR single-cycle, Tau monomer amine-coupled, IgG analyte; IgG (bivalent, avidity); Tau monomer on the chip. The procedure:
as §1

For a further assay, the target named is T11, Tau fragment 37-51 (human, UniProt P10636-8 37-51).
T11 construct: range 37-51
T11 peptide (looked up): GDTDAGLKESPLQTP
As to the kind of experiment: ELISA on Tau 15-mer peptides, O.D.; conditions of this panel not given. (An ELISA detects its analyte on a solid surface through an enzyme-linked reagent.)

The target of another assay is T12, Tau fragment 1-15 (human, UniProt P10636-8 1-15).
T12 construct: range 1-15
T12 peptide (looked up): MAEPRQEFEVMEDHA
The assay is described as above.

In the next assay the target is T13, Tau fragment 19-33 (human, UniProt P10636-8 19-33, not fully specified).
T13 construct: range 19-33
T13 peptide (looked up): GLGDRKDQGGYTMHQ
Described as above.

A further assay has as its target T14, Tau fragment 28-42 (human, UniProt P10636-8 28-42, not fully specified).
T14 construct: range 28-42
T14 peptide (looked up): GYTMHQDQEGDTDAG
Described as above.

The next assay concerns the target T15, MAPT(10-24) (human, also: biotinylated, site not given here).
T15 construct: also called Tau fragment 10-24
T15 peptide: VMEDHAGTYGLGDRK
The assay is described as above.

B1: hu37D3-H9.v5 hIgG4.S228P (antibody, V domains shown)
VH: EVQLVESGGGLVQPGGSLRLSCAASGLIFRSYGMSWVRQAPGKGLEWVATINSGGTYTYYPDSVKGRFTISRDNSKNTLYLQMNSLRAEDTAVYYCANSYSGAMDYWGQGTLVTVSS
VL: EDVLTQTPLSLPVTPGQPASISCRSSQSIVHSNGNTYFEWYLQKPGQSPQLLIYKVSNRFSGVPDRFSGSGSGTDFTLKISRVEAEDVGVYYCFQGSLVPWTFGQGTKVEIK
notes: human IgG4 S228P, kappa; the t = 2 weeks sample is partly deamidated at light chain N28
By Kd is commonly meant the equilibrium constant for the complex coming apart. In general, koff refers to a measure of how fast the partners let go of each other. For orientation: kon means a measure of how fast the partners come together. For the molecule B1, the dissociation constant Kd in assay [1] came out at 1.5 nM; in [2], 1.5 nM; in assay [3], 1.3 nM; in assay [4], 0.7 nM. Moreover, in assay [3], the koff came to 0.0009 s⁻¹. In [3], the kon worked out at 710000 M⁻¹ s⁻¹.

B2: 37D3-H9 Fab (Fab, V domains shown)
VH: EVQLVESGGDLAKPGGSLKLSCTASGLIFRSYGMSWVRQTPDKRLEWVATINSGGTYTYYPDSVKGRFTISRDNAKNTLYLQMSSLKSEDTAMYYCANSYSGAMDYWGQGTSVTVSS
VL: B1 VL with E1D, V3L, T14S, P15L, Q17D, Q50K, V88L, Q105G, V109L
notes: Fab format
For B2, the koff in assay [5] turned out to be 0.0005 s⁻¹.

B3: 37D3-H9 (antibody, mouse IgG2a, V domains shown)
VH: B2 VH
VL: B1 VL with E1D, V3L, T14S, P15L, Q17D, Q50K, V88L, Q105G, V109L
notes: also called 37D3-H9 mIgG2a; 37D3-H9 IgG
Take B3: the binding result with Tau fragment 2-21 Y18A is “no binding”; with Tau fragment 2-21 L20A, “no binding”; with Tau fragment 9-23 it was “binds”; with Tau fragment 8-22, “binds”; with Tau fragment 7-21, “binds”; with Tau fragment 11-25 it was “binds”. For the same molecule, the binding result is “binds” with MAPT(2-34); “binds” in the assay with MAPT(2-24); “no binding (tested: not given)” with Tau fragment 37-51; “no binding (tested: not given)” in the assay with Tau fragment 1-15; “no binding (tested: not given)” with Tau fragment 19-33; “no binding (tested: not given)” with Tau fragment 28-42. Further, in the assay with MAPT(10-24), the binding result is “binds”. Also, the Kd was 1 nM in assay [6] and 1.6 nM in assay [7]. The koff in assay [7] was 0.0001 s⁻¹; in assay [9], 1.1e-05 s⁻¹. Moreover, in assay [7], the kon amounted to 100000 M⁻¹ s⁻¹. In addition, the “fold difference in dissociation rate, Fab against IgG” value in assay [8] was 45 fold.

The values above are taken from patent publication US20190367592A1 (AC IMMUNE, published 2019).
